Measurements published in patent US20230220042A1 (SHANGHAI JIAO TONG UNIVERSITY SCHOOL OF MEDICINE, published 2023).
Numbering of substitutions follows the chain as printed. In names and notes the source's numbering stands.

Columns and labels:
[1] = biological target: Biotin-FcγRIIB (human) (UniProt P31994); test: NGS of 3T3 display library C2 flow-sorted for FcγRIIB binding
[2] = biological target: FcγRIIA^131R (human) (UniProt P12318); test: ELISA, coated antibody, biotin-FcγR;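 on Absorbance value: antibody coated at 2 µg/mL at 100 µL per well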
[3] = biological target: T1, Biotin-FcγRIIB (human, UniProt P31994 43-217, limits assumed, biotin-labelled); test: magnetic sorting on biotin-FcγRIIB with unlabelled activating FcγRs, NGS; Library4
T1 construct: Bought, biotin-labelled; used at 1 µg/ml for staining and sorting; also called human FcγRIIB; CD32b
T1 sequence (looked up): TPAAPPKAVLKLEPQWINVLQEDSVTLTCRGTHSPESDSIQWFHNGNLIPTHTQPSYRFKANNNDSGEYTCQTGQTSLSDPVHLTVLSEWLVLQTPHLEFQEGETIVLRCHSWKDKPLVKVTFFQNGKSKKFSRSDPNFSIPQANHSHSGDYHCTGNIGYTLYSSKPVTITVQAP
Procedure: 3T3 cells were collected by trypsin digestion, and a single cell suspension was prepared. […] The cells were incubated for 15 minutes on ice and then washed twice with MACS buffer and re-suspended in 100 μl MACS buffer. Twenty-five μl anti-Biotin magnetic beads were added, and the cells were incubated for 15 minutes on ice and then washed once with MACS buffer and re-suspended to 500 μl, and added to the LS column put in the magnetic field. The effluent was collected, washed with 3 mL of MACS buffer and collected; The LS column was then removed out of the magnetic field, and 5 mL of MACS buffer was used to rapidly elute the remaining cells from the sorting column to collect positive cells, which are the high I/A ratio cells.
The high-FcγRIIB-affinity cells obtained from the above flow cytometry sorting are further sorted by magnetic-activated sorting. The cells are incubated with the mixture of Biotin-labeled FcγRIIB and non-labeled activating FcγRs, and then the labeled cells are sorted by anti-Biotin magnetic beads. The enrichment ratios after sorting relative to before sorting are analyzed by NGS.

[4] = biological target: T1, Biotin-FcγRIIB; test: FACS sorting of displayed Fc library on biotin-FcγRIIB, NGS
[5] = biological target: T1, Biotin-FcγRIIB; test: FACS sorting of displayed Fc library on biotin-FcγRIIB, NGS; reference S267E
[6] = biological target: T2, FcγRIIB (human, UniProt P31994 43-217, biotin-labeled); test: ELISA; relative affinity to FcγRIIB over that to FcγRIIA131R
T2 construct: extracellular domain; Bought protein; also called CD32b
T2 sequence (looked up): T1 sequence (looked up)

[7] = biological target: T2, FcγRIIB; test: ELISA, coated antibody, biotin-FcγR;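 on Absorbance value: antibody coated at 2 µg/mL at 100 µL per well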
[8] = biological target: T3, FcγRIIIA^158F (human, UniProt P08637 17-208, biotin-labeled); test: ELISA, coated antibody, biotin-FcγR;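 on Absorbance value: antibody coated at 2 µg/mL at 100 µL per well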
T3 construct: extracellular domain; Bought protein; also called RIIIAF

[9] = biological target: T4, FcγRI (human, UniProt P12314 16-292, biotin-labeled); test: ELISA, coated antibody, biotin-FcγR;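 on Absorbance value: antibody coated at 2 µg/mL at 100 µL per well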
T4 construct: extracellular domain; Bought protein; also called CD64

[10] = biological target: T5, FcγRIIA^131H (human, UniProt P12318 34-217, biotin-labeled); test: ELISA, coated antibody, biotin-FcγR;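 on Absorbance value: antibody coated at 2 µg/mL at 100 µL per well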
T5 construct: extracellular domain; Bought protein; also called RIIAH
T5 sequence (looked up): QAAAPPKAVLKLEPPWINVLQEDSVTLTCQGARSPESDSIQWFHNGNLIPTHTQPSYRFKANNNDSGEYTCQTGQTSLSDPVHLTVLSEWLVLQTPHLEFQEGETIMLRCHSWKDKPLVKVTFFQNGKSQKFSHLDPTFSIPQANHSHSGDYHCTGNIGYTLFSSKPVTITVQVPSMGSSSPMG

[11] = biological target: T6, FcγRIIIA^158V (human, UniProt P08637 17-208, biotin-labeled); test: ELISA, coated antibody, biotin-FcγR;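 on Absorbance value: antibody coated at 2 µg/mL at 100 µL per well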
T6 construct: extracellular domain; Bought protein; also called RIIIAV; CD16a 158V
T6 sequence (P08637 17-208 F176V): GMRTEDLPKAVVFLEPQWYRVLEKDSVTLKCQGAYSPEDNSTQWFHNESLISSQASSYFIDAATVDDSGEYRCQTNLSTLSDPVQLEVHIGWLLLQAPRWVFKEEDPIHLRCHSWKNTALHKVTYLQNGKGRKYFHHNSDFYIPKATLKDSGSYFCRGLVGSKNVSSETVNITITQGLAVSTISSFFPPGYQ

T4 sequence (P12314 16-292): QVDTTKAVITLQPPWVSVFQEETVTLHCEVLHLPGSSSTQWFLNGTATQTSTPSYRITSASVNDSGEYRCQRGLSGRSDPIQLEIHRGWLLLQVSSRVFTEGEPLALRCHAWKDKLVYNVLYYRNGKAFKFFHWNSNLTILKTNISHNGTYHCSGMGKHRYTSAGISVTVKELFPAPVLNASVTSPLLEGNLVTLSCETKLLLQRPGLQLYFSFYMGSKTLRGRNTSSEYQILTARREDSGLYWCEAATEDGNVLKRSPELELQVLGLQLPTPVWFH
T3 sequence (P08637 17-208): as the sequence (P08637 17-208 F176V) above, with V160F counted along it

## human IgG2 anti-mouse CD40 surface displayed antibody, V234Q/V266L/S267D/H268D/E269D/P271Q
[1]
  enrichment factor, percentage after 3rd sorting/percentage after 2nd sorting: 15.4
  percentage after 2nd sorting: 0%
  percentage after 3rd sorting: 0.04%

## IgG2 N297A (antibody)
[2]
  Absorbance value: 0.04 A650

B1: human IgG2 anti-mouse CD40 surface displayed antibody, Fc mutant G327S (antibody, name in EU numbering)
light chain (with the P2A rest): DTVLTQSPALAVSPGERVTISCRASDSVSTLMHWYQQKPGQQPKLLIYLASHLESGVPARFSGSGSGTDFTLTIDPVEADDTATYYCQQSWNDPWTFGGGTKLELKRTVAAPSVFIFPPSDEQLKSGTASVVCLLNNFYPREAKVQWKVDNALQSGNSQESVTEQDSKDSTYSLSSTLTLSKADYEKHKVYACEVTHQGLSSPVTKSFNRGECGSGATNFSLLKQAGDVEENPG
heavy chain: EVQLVESDGGLVQPGRSLKLPCAASGFTFSDYYMAWVRQAPTKGLEWVASISYDGSSTYYRDSVKGRFTISRDNAKSTLYLQMDSLRSEDTATYYCGRHSSYFDYWGQGVMVTVSSASTKGPSVFPLAPCSRSTSESTAALGCLVKDYFPEPVTVSWNSGALTSGVHTFPAVLQSSGLYSLSSVVTVPSSNFGTQTYTCNVDHKPSNTKVDKTVERKCCVECPPCPAPPVAGPSVFLFPPKPKDTLMISRTPEVTCVVVDVSHEDPEVQFNWYVDGVEVHNAKTKPREEQFNSTFRVVSVLTVVHQDWLNGKEYKCKVSNKSLPAPIEKTISKTKGQPREPQVYTLPPSREEMTKNQVSLTCLVKGFYPSDIAVEWESNGQPENNYKTTPPMLDSDGSFFLYSKLTVDKSRWQQGNVFSCSVMHEALHNHYTQKSLSLSPGKLEPPPSTVSNMATVAVLVVLGAAIVTGAVVAFVMKMRRRNTGGKGGDYALAPGSQTSDLSLPDCKVMVHDPHSLA
notes: as m1; positions are Eu numbers; copies: 2 + 2
[3]
  Enrichment factor (percentage after sorting/percentage before sorting): 6.9
  Increased factor (mutation enrichment factor/wild-type enrichment factor): 7.84
  Percentage after sorting/unbinding percentage: 71.2
  Percentage before sorting/unbinding percentage: 10.3

B2: human IgG2 anti-mouse CD40 surface displayed antibody, Fc mutant L328N (antibody, name in EU numbering)
light chain (with the P2A rest): B1 light chain (with the P2A rest)
heavy chain: B1 heavy chain with S322G, L323N
notes: as for B1
[3]
  Enrichment factor (percentage after sorting/percentage before sorting): 2.73
  Increased factor (mutation enrichment factor/wild-type enrichment factor): 3.11
  Percentage after sorting/unbinding percentage: 50.9
  Percentage before sorting/unbinding percentage: 18.6

B3: human IgG2 anti-mouse CD40 surface displayed antibody, Fc mutant S267E/P271V (antibody, name in EU numbering)
light chain (with the P2A rest): B1 light chain (with the P2A rest)
heavy chain: B1 heavy chain with S262E, P266V, S322G
notes: as for B1
[4]
  Enrichment factor (after/before sorting): 22.1
  Increased factor a (enrichment factor/wild-type enrichment factor): 38.4
[5]
  Increased factor 2 c Site 1 (combined/point mutation): 1.4

B4: human IgG2 anti-mouse CD40 surface displayed antibody, Fc mutant S267E/P271Y (antibody, name in EU numbering)
light chain (with the P2A rest): B1 light chain (with the P2A rest)
heavy chain: B1 heavy chain with S262E, P266Y, S322G
notes: as for B1
[4]
  Enrichment factor (after/before sorting): 19.2
  Increased factor a (enrichment factor/wild-type enrichment factor): 33.4
[5]
  Increased factor 2 c Site 1 (combined/point mutation): 1.2

B5: human IgG2 anti-mouse CD40 surface displayed antibody, Fc mutant S267E/D270H (antibody, name in EU numbering)
light chain (with the P2A rest): B1 light chain (with the P2A rest)
heavy chain: B1 heavy chain with S262E, D265H, S322G
notes: as for B1
[4]
  Enrichment factor (after/before sorting): 42.7
  Increased factor a (enrichment factor/wild-type enrichment factor): 74.3
[5]
  Increased factor 2 c Site 1 (combined/point mutation): 2.6

B6: human IgG2 anti-mouse CD40 surface displayed antibody, Fc mutant S267E/P271W (antibody, name in EU numbering)
light chain (with the P2A rest): B1 light chain (with the P2A rest)
heavy chain: B1 heavy chain with S262E, P266W, S322G
notes: as for B1
[4]
  Enrichment factor (after/before sorting): 24
  Increased factor a (enrichment factor/wild-type enrichment factor): 41.8
[5]
  Increased factor 2 c Site 1 (combined/point mutation): 1.5

B7: wild-type IgG2 anti-human OX40 antibody (antibody)
heavy: QVQLQESGPGLVKPSGTLSLTCAVSGGSISSSIWWSWVRQPPGKGLEWIGEIHHSGNTNCNPSLKSRVTISIDKSKNQFSLKLTSVTAADTAVYYCARAGTGTTLDYWGQGTLVTVSSASTKGPSVFPLAPCSRSTSESTAALGCLVKDYFPEPVTVSWNSGALTSGVHTFPAVLQSSGLYSLSSVVTVPSSNFGTQTYTCNVDHKPSNTKVDKTVERKCCVECPPCPAPPVAGPSVFLFPPKPKDTLMISRTPEVTCVVVDVSHEDPEVQFNWYVDGVEVHNAKTKPREEQFNSTFRVVSVLTVVHQDWLNGKEYKCKVSNKGLPAPIEKTISKTKGQPREPQVYTLPPSREEMTKNQVSLTCLVKGFYPSDIAVEWESNGQPENNYKTTPPMLDSDGSFFLYSKLTVDKSRWQQGNVFSCSVMHEALHNHYTQKSLSLSPGK
light: EIVLTQSPGTLSLSPGERATLSCRASQSVSGDYLAWYQQKLGQAPRLLIYGASIRATGIPDRFSGSGSGTDFTLTISKLEPEDFAVYYCQQYGSSPLTFGGGTKVEIKRTVAAPSVFIFPPSDEQLKSGTASVVCLLNNFYPREAKVQWKVDNALQSGNSQESVTEQDSKDSTYSLSSTLTLSKADYEKHKVYACEVTHQGLSSPVTKSFNRGEC
notes: also called WTIgG2
[2]
  Absorbance value: 0.08 A650
  Relative binding affinity RIIAR/G1: 0.29
[6]
  RIIB/RIIAR: 0.34 ratio
[7]
  Absorbance value: 0.08 A650
  Increased factor of RIIB binding compared with wild-type IgG2: 1 fold
  Relative binding affinity RIIB/G1: 0.1 ratio
[8]
  Absorbance value: 0.06 A650
  Relative binding affinity RIIIAF/G1: 0.3 ratio
[9]
  Absorbance value: 0.08 A650
  Relative binding affinity RI/G1: 0.03 ratio
[10]
  Absorbance value: 0.49 A650
  Relative binding affinity RIIAH/G1: 0.85 ratio
[11]
  Absorbance value: 0.05 A650
  Relative binding affinity RIIIAV/G1: 0.06 ratio

B8: anti-human OX40 IgG2 antibody Mut_26 (V234Q/A235G/P238L/S239V/S267E/H268S/E269D) (antibody)
heavy: B7 heavy with V232Q, A233G, P235L, S236V, S264E, H265S, E266D
light: B7 light
notes: Substitutions in Eu numbering; entries include an unstated signal peptide
[2]
  Absorbance value: 0.08 A650
  Relative binding affinity RIIAR/G1: 0.32
[6]
  RIIB/RIIAR: 2.24 ratio
[7]
  Absorbance value: 0.55 A650
  Increased factor of RIIB binding compared with wild-type IgG2: 7.28 fold
  Relative binding affinity RIIB/G1: 0.72 ratio
[8]
  Absorbance value: 0.08 A650
  Relative binding affinity RIIIAF/G1: 0.41 ratio
[9]
  Absorbance value: 0.19 A650
  Relative binding affinity RI/G1: 0.07 ratio
[10]
  Absorbance value: 0.06 A650
  Relative binding affinity RIIAH/G1: 0.11 ratio
[11]
  Absorbance value: 0.09 A650
  Relative binding affinity RIIIAV/G1: 0.09 ratio
